Results as given in paper PMC10290134, “Development of a one-shot dual aptamer-based fluorescence nanosensor for rapid, sensitive, and label-free detection of periostin”.

T1: Periostin (UniProt Q15063 496-836)
T1 sequence: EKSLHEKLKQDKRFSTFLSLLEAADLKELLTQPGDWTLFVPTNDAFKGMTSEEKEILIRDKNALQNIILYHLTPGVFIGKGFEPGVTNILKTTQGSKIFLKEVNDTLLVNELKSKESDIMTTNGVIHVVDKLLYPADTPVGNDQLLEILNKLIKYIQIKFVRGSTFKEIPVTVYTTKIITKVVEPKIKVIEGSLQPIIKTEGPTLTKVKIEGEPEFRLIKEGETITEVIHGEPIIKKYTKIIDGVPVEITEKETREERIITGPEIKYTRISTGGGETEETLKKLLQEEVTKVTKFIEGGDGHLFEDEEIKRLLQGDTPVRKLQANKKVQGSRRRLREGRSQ

B1: PL2 (ssDNA)
DNA: CACCTAATACGACTCACTATAGCGGATCCGAAAGTCAACGCCAGATAAAAACAATTTGCCTTCCTCCGCCCCTGGCTCGAACAAGCTTGC
B2: PL5 (ssDNA)
DNA: CACCTAATACGACTCACTATAGCGGATCCGATTCGAACCAGAATATTAGTCGCAAAATCTTGATGCAGTCACTGGCTCGAACAAGCTTGC
B3: PL5trunc (ssDNA)
DNA: TAATACGACTCACTATAGCGGATCCGATTCGAACCAGAATATTAGTCGCAAAATCTTGATG

These binders were tested against T1, Periostin (assay: magnetic bead fluorescence assay; 5 mM Mg2+; 20 mM Tris-HCl pH 8.0, 100 mM NaCl, 5 mM KCl, 5 mM MgCl2, 0.05% Tween 20, 25 °C, 1 h; His-tagged periostin on His-tag magnetic beads). Details: protein: recombinant; tags: 6xHis (pET-28a); label: 5' Cy3.

| Binder | Kd [nM] |
| --- | --- |
| B1 | 45.7 |
| TCAACGCCAGATAAAAACAATTTGCCTTCCTCCGCCCCTGGCTCGAA (ssDNA) [PL2trunc] | 10.1 |
| B2 | 50.1 |
| B3 | 37 |
